Bridges are numbered along the chain shown (N, C = ends). Where no end group is shown, it is not given here. [ ]: non-standard residue; d: D form. Trp(5-OH) = N[C@@H](Cc1c[nH]c2ccc(O)cc12)C(=O)O; Phe(4-NH2) = Nc1ccc(C[C@H](N)C(=O)O)cc1; βAla = NCCC(=O)O
B1: D-Ser3 (peptide 14), SYNGAP peptide with d-Ser (peptide)
peptide: RRRRRRG[dS]FPPWVQQTRV
B2: D-Gln9 (peptide 18), SYNGAP peptide with d-Gln (peptide)
peptide: RRRRRRGSFPPWV[dQ]QTRV
B3: Cyclic peptide derived from CRIPT (peptide 6) (peptide)
peptide: CKNYKKTEV
modifications: lactam 6-8 via βAla
B4: W7-OHW (peptide 13), SYNGAP peptide with 5-hydroxy-Trp in place of Trp7 (peptide)
peptide: RRRRRRGSFPP[Trp(5-OH)]VQQTRV
B5: D-Pro4 (peptide 15), SYNGAP peptide with d-Pro at the first proline (peptide)
peptide: RRRRRRGSF[dP]PWVQQTRV
B6: αC binder (peptide 8), fragment of the SYNGAP peptide made up of only αC helix interacting residues (peptide)
peptide: GSFPPWVQ
B7: Syn3* (peptide 4), active component peptide of Syn3 without the poly-arginine moiety (peptide)
peptide: CGSFPPWVKKTEV
modifications: bridge 10-12; not fully specified (residue 10, bridges)
B8: D-Pro5 (peptide 16), SYNGAP peptide with d-Pro at the second proline (peptide)
peptide: RRRRRRGSFP[dP]WVQQTRV
B9: D-Val8 (peptide 17), SYNGAP peptide with d-Val (peptide)
peptide: RRRRRRGSFPPW[dV]QQTRV
B10: F4-NH2F (peptide 12), SYNGAP peptide with ζ-Amino-Phe in place of Phe4 (peptide)
peptide: RRRRRRGS[Phe(4-NH2)]PPWVQQTRV

Target: PSD-95 PDZ3cα protein (residues R309-S422) (UniProt P78352 309-422)
Assay: SPR
Conditions: not given

PSD-95 PDZ3cα protein (residues R309-S422) (UniProt P78352 309-422), sequence (P78352 309-422): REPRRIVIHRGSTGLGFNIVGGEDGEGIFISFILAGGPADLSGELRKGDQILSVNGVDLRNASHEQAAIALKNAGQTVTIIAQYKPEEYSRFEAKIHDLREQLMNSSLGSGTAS

First: B1
Second: B2
The Kd of the first is 7.3-fold lower: 7.8 nM for the first, 57.3 nM for the second.

Compared with B4, B5 is 73-fold lower in Kd: 446 nM for the first, 6.1 nM for the second.

First: B6
Second: B8
The Kd of the first is 460-fold higher: 11100 nM for the first, 24.3 nM for the second. The second binds more tightly here.

Going from B9 to B10, the Kd rises from 20.9 nM to 67.8 nM (3.2-fold).

Going from B1 to B2, the koff rises from 0.00493 s⁻¹ to 0.0182 s⁻¹ (3.7-fold).

Compared with B3, B4 is 2.7-fold lower in koff: 0.0291 s⁻¹ for the first, 0.0106 s⁻¹ for the second.

Compared with B5, B6 is 2-fold lower in koff: 0.0116 s⁻¹ for the first, 0.00592 s⁻¹ for the second.

First: B7
Second: B8
The koff of the first is 1.5-fold lower: 0.0287 s⁻¹ for the first, 0.0444 s⁻¹ for the second.

Compared with B9, B10 is 4.4-fold lower in koff: 0.0459 s⁻¹ for the first, 0.0104 s⁻¹ for the second.

Going from B1 to B2, the kon falls from 633000 M⁻¹ s⁻¹ to 317000 M⁻¹ s⁻¹ (2-fold).

First: B3
Second: B4
The kon of the first is 3.2-fold higher: 76000 M⁻¹ s⁻¹ for the first, 24000 M⁻¹ s⁻¹ for the second.

Compared with B5, B6 is 1900-fold lower in kon: 1.88e+06 M⁻¹ s⁻¹ for the first, 1000 M⁻¹ s⁻¹ for the second.

First: B7
Second: B8
The kon of the first is 4.2-fold lower: 439000 M⁻¹ s⁻¹ for the first, 1.83e+06 M⁻¹ s⁻¹ for the second.

First: B9
Second: B10
The kon of the first is 14-fold higher: 2.19e+06 M⁻¹ s⁻¹ for the first, 153000 M⁻¹ s⁻¹ for the second.

Test system: PDZ3cα fragment
Assay: not given
Conditions: ref [31]; cited from earlier work

In the case of -YKQTSV [CRIPT linear PBM], the “fold higher affinity for PDZ3cα fragment than for the isolated PDZ3 domain” value is given as 21 fold.

Same assay, conditions: relative to isolated PDZ domains; ref [10], [30]; cited from earlier work

In the case of -VQQTRV [SynGAP PBM], the “fold higher affinity to the longer PDZ3cα fragment” value is given as 15 fold.

Target: PSD-95 PDZ3cα protein (residues R309-S422) (UniProt P78352)
Assay: SPR
Conditions: not given

PSD-95 PDZ3cα protein (residues R309-S422) (UniProt P78352), sequence (P78352 309-422): as above

Going from “V8I (peptide 10), SYNGAP peptide with the substitution V8I” to “V8L (peptide 9), SYNGAP peptide with the substitution V8L”, the Kd falls from 101 nM to 58.4 nM (1.7-fold).

Molecule “F4H (peptide 11), SYNGAP peptide with the substitution F4H” has a Kd of 121 nM.

“V8I (peptide 10), SYNGAP peptide with the substitution V8I” and “V8L (peptide 9), SYNGAP peptide with the substitution V8L” are within 1.5-fold of each other in koff: 0.00294 s⁻¹ for the first, 0.00381 s⁻¹ for the second.

“F4H (peptide 11), SYNGAP peptide with the substitution F4H” showed a koff of 0.0261 s⁻¹.

With “F4H (peptide 11), SYNGAP peptide with the substitution F4H” the kon was 216000 M⁻¹ s⁻¹.

Source: paper PMC10842001 (FEBS letters, 2023)
